Laboratory results reported in patent US6030777.

Assays:
[1] = molecular target: E. coli core RNA polymerase (E. coli) (UniProt P0A7Z4)
[2] = molecular target: Salmonella typhimurium sigma^70, purified (Salmonella typhimurium) (UniProt P0A2E3)
[3] = molecular target: E. coli sigma^70 (E. coli) (UniProt P00579)

| Substance | RNA polymerase activity, [^3 H]UTP (nmol) ([^3 H]UTP (nmol)) [1] | RNA polymerase activity, [^3 H]UTP (nmol), after adding S. typhimurium sigma^70 to E. coli RNA polymerase inhibited by AsiA ([^3 H]UTP (nmol)) [2] | RNA polymerase activity, [^3 H]UTP (nmol), with sigma^70 preincubated with AsiA ([^3 H]UTP (nmol)) [2] | E. coli RNA polymerase assay (sigma^70 dependent transcription on T4 phage DNA) [3] |
| --- | --- | --- | --- | --- |
| Salmonella typhimurium sigma^70, purified (from UniProt P0A2E3) | 2.3 | – | – | – |
| AsiA protein (10 kDa anti-sigma^70 factor of bacteriophage T4), purified | – | 3 | 0.98 | > 80 % inhibited |
